Measured values: patent publication US20090060916A1 (published 2009)
Where “and” joins values, the source holds several entries; their conditions need not be identical. Equal values may be shown once.

Columns and labels:
human IL-13 [1] = biological target: T1, human IL-13 (human, UniProt P35225 35-146, biotinylated on the Biacore chip); assay: Biacore SPR, IL-13 surface, before and after DOM10-53-386
T1 construct: also called hIL-13; recombinant human IL-13
Protocol: Analytes were passed over the antigen-coated flow-cell, with in-line referencing against a blank flow-cell, at a flow rate of 30 μl/min in HBS-EP running buffer (Biacore).

human IL-13 [2] = biological target: T1, human IL-13; assay: IL-13 Biacore
cynomolgous IL-13 = cynomolgous IL-13 (cynomolgous, UniProt Q0PW92 19-132, The Biacore assay used biotinylated cIL-13 according to our card. The biotin cannot be carried in the letters.); assay: cell-based or functional assay
cynomolgous IL-13, sequence (Q0PW92 entry or part of it limits assumed, form in doubt): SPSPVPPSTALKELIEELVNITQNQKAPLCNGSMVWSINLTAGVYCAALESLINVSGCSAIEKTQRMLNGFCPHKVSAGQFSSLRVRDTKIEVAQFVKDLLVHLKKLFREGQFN

human IL-13 [3] = biological target: T1, human IL-13; assay: cell-based or functional assay
human IL-4 [4] = biological target: T2, human IL-4 (human, UniProt P05112 25-153, biotinylated in the receptor binding assay and on the Biacore chip); assay: DOM9 RBA (IL-4 RBA)
T2 construct: also called interleukin-4; biotinylated IL-4
T2 sequence (looked up): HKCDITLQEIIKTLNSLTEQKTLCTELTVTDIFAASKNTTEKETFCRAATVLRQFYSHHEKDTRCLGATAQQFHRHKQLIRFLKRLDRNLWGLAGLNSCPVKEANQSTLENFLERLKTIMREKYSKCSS
Text: (§1) The wells were washed three times with 0.1% (v/v) Tween 20 in PBS, followed by three washes with PBS, before blocking with 2% (w/v) BSA in PBS. […] The reaction was stopped by the addition of HCl and the absorbance read at 450 nm.

human IL-13 [5] = biological target: T1, human IL-13; assay: IL-13 sandwich ELISA, competition with coating antibody
Protocol: A MAXISORP™ plate (high protein binding ELISA plate, Nunc, Denmark) was coated overnight with 2.5 μg/ml coating antibody (Module Set, Bender MedSystems, Vienna, Austria), then washed once with 0.05% (v/v) Tween 20 in PBS before blocking with 0.5% (w/v) BSA 0.05% (v/v) Tween 20 in PBS. […] The plate was then incubated with TMB substrate (KPL, Gaithersburg, USA), and the reaction was stopped by the addition of HCl and the absorbance read at 450 nm.

human IL-13 [6] = biological target: T1, human IL-13; assay: assay not named ('Potency IC50')
human IL-4 [7] = biological target: T2, human IL-4; assay: IL-4 RBA: ELISA, IL-4R/Fc coated, biotinylated IL-4
Text: as §1

T1 sequence (P35225 35-146 limits assumed): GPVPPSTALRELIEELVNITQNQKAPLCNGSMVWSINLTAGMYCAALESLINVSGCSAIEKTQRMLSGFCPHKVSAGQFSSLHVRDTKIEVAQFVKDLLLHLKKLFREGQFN

B1: DOM10-236 (other)
VH: EVQLLESGGGLVQPGGSLRLSCAASGFTFPKYDMMWVRQAPGKGLEWVSSIDHLGVNTYYADSVKGRFTISRDNSKNTLYLQMNSLRAEDTAVYYCAKESDWPSFDYWGQGTLVTVSS
notes: VH dAb
Human IL-13 [1]
  binding result: binds

B2: DOM10-208 (other)
VL: DIQMTQSPSSLSASVGDRVTITCRASSPITDGLAWYQQKPGKAPKLLIDTGSRLQSGVPSRFSGSGSGTDFTLTISSLQPEDFATYYCRQGAMGSYTFGQGTKVEIKR
notes: Vk dAb
Human IL-13 [1]
  binding result: binds

B3: DOM10-224 (other)
VL: DIQMTQSPSSLSASVGDRVTITCRASPNIAVDLAWYQQKPGKAPKLLIRGVSRLQSGVPSRFSGSGSGTDFTLTISSLQPEDFATYYCRQGAMGSYTFGQGTKVEIKR
notes: Vk dAb
Human IL-13 [1]
  binding result: binds

B4: DOM10-212-TVAAPS-DOM9-155-78 (bispecific antibody)
chain: DIQMTQSPSSLSASVGDRVTITCRASSVILNELHWYQQKPGKAPKLLISAVSRLQSGVPSRFSGSGSGTDFTLTISSLQPEDFATYYCLQTFWGPFTFGQGTKVEIKRTVAAPSDIQMTQSPSSLSASVGDRVTITCRASRHIGDWLHWYQQKPGKAPKLLIAWASTLDSGVPSRFSGSGSGTDFTLTISSLQPEDFATYYCLQEGWGPPTFGQGTKVEIKR
notes: in-line fusion, from pDOM5
Human IL-13 [2]
  binding result: binds

B5: DOM10-275-94 (other)
VH: EVQLLESGGGLVQPGGSLRLSCAASGFTFDVAEMDWVRQAPGKGLEWVSTISPSRRGTYYADSVKGRFTISRDNSKNTLYLQMNSLRAEDTAVYYCAKAYTGRSWWGPGTLVTVSS
Cynomolgous IL-13
  EC50, HEK293 STAT6 SEAP reporter assay, cIL-13: 2 nM
Human IL-13 [3]
  EC50, HEK293 STAT6 SEAP reporter assay, hIL-13: 2.3 nM

B6: DOM9-112-210-ASTKGPS-DOM10-208 (bispecific antibody)
chain: EVQLLESGGGLVQPGGSLRLSCAASGFTFRNFGMGWVRQAPGKGLEWVSWIISSGTETYYADSVKGRFTISRDNSKNTLYLQMNSLRAEDTAVYYCAKSLGRFDYWGQGTLVTVSSASTKGPSDIQMTQSPSSLSASVGDRVTITCRASSPITDGLAWYQQKPGKAPKLLIDTGSRLQSGVPSRFSGSGSGTDFTLTISSLQPEDFATYYCRQGAMGSYTFGQGTKVEIKR
notes: in-line fusion, from pDOM5
Human IL-13 [2]
  binding result: binds
Human IL-4 [4]
  IC50: 2.48 nM

B7: DOM10-53-396 (other)
VH: GVQLLESGGGLVQPGGSLRLSCAASGFIFAWYDMGWARQAPGKGLEWVSSIGWHGNVTYYADSVKGRFTISRDNSKNTLYLQMNSLRAEDTAVYYCATAEDEPGYDYWGQGTLVTVSS
notes: VH dAb
Human IL-13 [5]
  IC50: 0.055 nM and 0.03 nM

B8: DOM10-53-472 (other)
VH: GVQLLESGGGLVQPGGSLRLSCAASGFIFAWYDMKWVRQAPGKGLEWVSSIDWHGKITYYADSVKGRFTISRDNSKNTLYLQMNSLRAEDTAVYYCATAEDEPGYDYWGQGTLVTVSS
notes: VH dAb
Human IL-13 [6]
  IC50: 0.054 nM

B9: DOM10-53-531 (other)
VH: GVQLLESGGGLVQPGGSLRLSCAASGFTFAWYDMGWVRQAPGKGLEWVSSIDWKGGKTYYADSVKGRFTISRDNSKNTLYLQMNSLRAEDTAVYYCATAEDEPGYDYWGQGTLVTVSS
notes: VH dAb
Human IL-13 [6]
  IC50: 0.34 nM

B10: DOM10-53-612 (other)
VH: GVQLLESGGGLVQPGGSLRLSCAASGFAFAAYDMGWVRQAPGKGLEWVSSIDWKGMETYYADSVKGRFTISRDNSKNTLYLQMNSLRAEDTAVYYCATAEDEPGYDYWGQGTLVTVSS
notes: VH dAb
Human IL-13 [6]
  IC50: 20 nM

B11: DOM10-53-434 (other)
VH: GVQLLESGGGLVQPGGSLRLSCAASGFIFAWYDMGWVRQAPGKGLEWVSSIDWKGGKTYYADSVKGRFTISRDNSKNTLYLQMNSLRAEDTAVYYCATAEDEPGYDYWGQGTLVTVSS
notes: VH dAb
Human IL-13 [6]
  IC50: 0.29 nM

B12: DOM10-53-475 (other)
VH: GVQLLESGGGLVQPGGSLRLSCAASGFTFAWYDMGWVRQAPGKGLEWVSSIDWHGKITYYADSVKGRFTISRDNSKNTLYLQMNSLRAEDTAVYYCATAEDEPGYDYWGQGTLVTVSS
notes: VH dAb
Human IL-13 [6]
  IC50: 0.046 nM

B13: DOM10-215 (other)
VL: DIQMTQSPSSLSASVGDRVTITCRASQNIFADLNWYQQKPGKAPKLLIYMGSRLQSGVPSRFSGSGSGTDFTLTISSLQPEDFATYYCQQDYKFPLTFGQGTKVEIKR
notes: Vk dAb
Human IL-13 [1]
  binding result: binds

B14: DOM10-212 (other)
VL: DIQMTQSPSSLSASVGDRVTITCRASSVILNELHWYQQKPGKAPKLLISAVSRLQSGVPSRFSGSGSGTDFTLTISSLQPEDFATYYCLQTFWGPFTFGQGTKVEIKR
notes: Vk dAb
Human IL-13 [1]
  binding result: binds

B15: DOM10-270 (other)
VL: DIQMTQSPSSLSASVGDRVTITCRASSVILNELHWYQQKPGKAPKLLISAVSRLQSGVPSRFSGSGSGTDFTLTISSLQPEDFATYYCLQTFWGPYTFGQGTKVEIKR
notes: Vk dAb
Human IL-13 [1]
  binding result: binds

B16: DOM10-213 (other)
VL: DIQMTQSPSSLSASVGDRVTITCRASQAIPWGLNWYQQKPGKAPKLLIYDVSSLQSGVPSRFSGSGSGTDFTLTISSLQPEDFATYYCQQDIHIPMTFGQGTKVEIKR
notes: Vk dAb
Human IL-13 [1]
  binding result: binds

B17: DOM9-112-210-ASTKGPS-DOM10-215 (bispecific antibody)
chain: EVQLLESGGGLVQPGGSLRLSCAASGFTFRNFGMGWVRQAPGKGLEWVSWIISSGTETYYADSVKGRFTISRDNSKNTLYLQMNSLRAEDTAVYYCAKSLGRFDYWGQGTLVTVSSASTKGPSDIQMTQSPSSLSASVGDRVTITCRASQNIFADLNWYQQKPGKAPKLLIYMGSRLQSGVPSRFSGSGSGTDFTLTISSLQPEDFATYYCQQDYKFPLTFGQGTKVEIKR
notes: in-line fusion, from pDOM5
Human IL-13 [2]
  binding result: binds
Human IL-4 [4]
  IC50: 14.2 nM

B18: DOM9-112-210-DOM10-53-546 (bispecific antibody)
chain: EVQLLESGGGLVQPGGSLRLSCAASGFTFRNFGMGWVRQAPGKGLEWVSWIISSGTETYYADSVKGRFTISRDNSKNTLYLQMNSLRAEDTAVYYCAKSLGRFDYWGQGTLVTVSSASTKGPSGVQLLESGGGLVQPGGSLRLSCAASGFVFPWYDMGWVRQAPGKGLEWVSSIDWKGGKTYYADSVKGRFTISRDNSKNTLYLQMNSLRAEDTAVYYCATAEDEPGYDYWGQGTLVTVSS
notes: in-line fusion, from pDOM5
Human IL-13 [5]
  EC50: 1 nM
Human IL-4 [7]
  IC50: 4.3 nM and 6 nM

B19: DOM10-276-ASTKGPS-DOM9-155-78 (bispecific antibody)
chain: EVQLLESGGGLVQPGGSLRLSCAASGFTFRDYEMDWVRQAPGKGLEWVSSIGPSGSETYYADSVKGRFTISRDNSKNTLYLQMNSLRAEDTAVYYCAKAYTSFDYWGQGTLVTVSSASTKGPSDIQMTQSPSSLSASVGDRVTITCRASRHIGDWLHWYQQKPGKAPKLLIAWASTLDSGVPSRFSGSGSGTDFTLTISSLQPEDFATYYCLQEGWGPPTFGQGTKVEIKR
notes: in-line fusion, from pDOM5
Human IL-13 [2]
  binding result: binds
Human IL-4 [4]
  IC50: 5.02 nM

B20: DOM9-112-210-ASTKGPS-DOM10-275 (bispecific antibody)
chain: EVQLLESGGGLVQPGGSLRLSCAASGFTFRNFGMGWVRQAPGKGLEWVSWIISSGTETYYADSVKGRFTISRDNSKNTLYLQMNSLRAEDTAVYYCAKSLGRFDYWGQGTLVTVSSASTKGPSEVQLLESGGGLVQPGGSLRLSCAASGFTFDREEMDWVRQAPGKGLEWVSTISPSGRKTYYADSVKGRFTISRDNSKNTLYLQMNSLRAEDTAVYYCAKHGTGFDYWGQGTLVTVSS
notes: in-line fusion, from pDOM5
Human IL-13 [2]
  binding result: binds
Human IL-4 [4]
  IC50: 10.9 nM

B21: DOM9-112-210-ASTKGPS-DOM10-276 (bispecific antibody)
chain: EVQLLESGGGLVQPGGSLRLSCAASGFTFRNFGMGWVRQAPGKGLEWVSWIISSGTETYYADSVKGRFTISRDNSKNTLYLQMNSLRAEDTAVYYCAKSLGRFDYWGQGTLVTVSSASTKGPSEVQLLESGGGLVQPGGSLRLSCAASGFTFRDYEMDWVRQAPGKGLEWVSSIGPSGSETYYADSVKGRFTISRDNSKNTLYLQMNSLRAEDTAVYYCAKAYTSFDYWGQGTLVTVSS
notes: in-line fusion, from pDOM5
Human IL-13 [2]
  binding result: binds
Human IL-4 [4]
  IC50: 10.2 nM

B22: DOM10-224-TVAAPS-DOM9-155-78 (bispecific antibody)
chain: DIQMTQSPSSLSASVGDRVTITCRASPNIAVDLAWYQQKPGKAPKLLIRGVSRLQSGVPSRFSGSGSGTDFTLTISSLQPEDFATYYCRQGAMGSYTFGQGTKVEIKRTVAAPSDIQMTQSPSSLSASVGDRVTITCRASRHIGDWLHWYQQKPGKAPKLLIAWASTLDSGVPSRFSGSGSGTDFTLTISSLQPEDFATYYCLQEGWGPPTFGQGTKVEIKR
notes: in-line fusion, from pDOM5
Human IL-13 [2]
  binding result: binds
Human IL-4 [4]
  IC50: 12.5 nM

B23: DOM10-277 (other)
VH: EVQLLESGGGLVQPGGSLRLSCAASGFTFSSYEMDWVRQAPGKGLEWVSTISADGVTTYYADSVKGRFTISRDNSKNTLYLQMNSLRAEDTAVYYCAKAFDAFDYWGQGTLVTVSS
notes: VH dAb
Human IL-13 [1]
  binding result: binds
